Assay results reported in US20210292396A1.

Experiments:
Assay in all cases: cell-based or functional assay
[1] = molecular target: Env of HIV isolate MS208.A1 (clade A) (HIV)
[2] = molecular target: Env of HIV isolate 6545.v4.c1 (clade AC) (HIV)
[3] = molecular target: HIV Env of isolate 3873.v1.c24 (HIV)
[4] = molecular target: Env of HIV isolate HT593.1 (clade B) (HIV)
[5] = molecular target: HIV Env of isolate UG021.16 (HIV)
[6] = molecular target: Env of HIV isolate 3016.v5.c45 (clade D) (HIV)
[7] = molecular target: HIV Env of isolate ZM233.6 (HIV)
[8] = molecular target: HIV Env of isolate CNE8 (HIV)
[9] = molecular target: Env of HIV isolate SS1196.01 (clade B) (HIV)
[10] = molecular target: Env of HIV isolate CNE15 (clade BC) (HIV)
[11] = molecular target: HIV Env of isolate Q769.d22 (HIV)
[12] = molecular target: Env of HIV isolate 6095.v1.c10 (clade ACD) (HIV)
[13] = molecular target: Env of HIV isolate TH966.8 (clade AE) (HIV)
[14] = molecular target: HIV Env of isolate 6471.v1.c16 (HIV)
[15] = molecular target: Env of HIV isolate Q23.17 (clade A) (HIV)
[16] = molecular target: HIV Env of isolate CAP45.G3 (HIV)
[17] = molecular target: HIV Env of isolate 6644.v2.c33 (HIV)
[18] = molecular target: HIV Env of isolate CNE21 (HIV)
[19] = molecular target: Env of HIV isolate 5768.04 (clade B) (HIV)
[20] = molecular target: Env of HIV isolate UG024.2 (clade D) (HIV)
[21] = molecular target: HIV Env of isolate 231965.c01 (HIV)
[22] = molecular target: Env of HIV isolate CNE19 (clade BC) (HIV)
[23] = molecular target: HIV Env of isolate BL01.DG (HIV)
[24] = molecular target: Env of HIV isolate 398-F1.F6.20 (clade A) (HIV)
[25] = molecular target: Env of HIV isolate 269-12 (clade AG) (HIV)
[26] = molecular target: Env of HIV isolate MB201.A1 (clade A) (HIV)
[27] = molecular target: HIV Env of isolate 6540.v4.c1 (HIV)
[28] = molecular target: HIV Env of isolate 0439.v5.c1 (HIV)
[29] = molecular target: Env of HIV isolate CNE30 (clade C in Table 7) (HIV)
[30] = molecular target: Env of HIV isolate 6101.10 (clade B) (HIV)
[31] = molecular target: Env of HIV isolate TRO.11 (clade B) (HIV)
[32] = molecular target: HIV Env of isolate RHPA.7 (HIV)
[33] = molecular target: HIV Env of isolate WITO.33 (HIV)
[34] = molecular target: Env of HIV isolate ZM215.8 (clade C) (HIV)
[35] = molecular target: Env of HIV isolate RHPA.7 (clade B) (HIV)
[36] = molecular target: Env of HIV isolate 6535.3 (clade B) (HIV)
[37] = molecular target: Env of HIV isolate 3589.v1.c4 (clade AC) (HIV)
[38] = molecular target: Env of HIV isolate 0260.v5.c36 (clade A) (HIV)
[39] = molecular target: HIV Env of isolate 6101.10 (HIV)
[40] = molecular target: HIV Env of isolate 7165.18 (HIV)
[41] = molecular target: Env of HIV isolate QH0692.42 (clade B) (HIV)

PGT121 (antibody)
IC50, pseudovirus neutralization [1]: > 50 µg/mL
IC50, pseudovirus neutralization [2]: > 50 µg/mL
IC80, pseudovirus neutralization [3]: 0.113 µg/mL
IC50, pseudovirus neutralization [4]: > 50 µg/mL
IC80, pseudovirus neutralization [5]: > 50 µg/mL
IC50, pseudovirus neutralization [6]: > 50 µg/mL
IC80, pseudovirus neutralization [7]: 3.6 µg/mL
IC80 [8]: > 50 µg/mL
IC50, pseudovirus neutralization [9]: 0.0123 µg/mL
IC50, pseudovirus neutralization [10]: 6.64 µg/mL
IC80 [11]: > 50 µg/mL
IC50, pseudovirus neutralization [12]: 1.98 µg/mL
IC50, pseudovirus neutralization [13]: > 50 µg/mL
IC80, pseudovirus neutralization [14]: > 50 µg/mL
IC50, pseudovirus neutralization [15]: 0.0107 µg/mL
IC80, pseudovirus neutralization [16]: > 50 µg/mL
IC80, pseudovirus neutralization [17]: 0.14 µg/mL
IC80, pseudovirus neutralization [18]: 0.0383 µg/mL
IC50, pseudovirus neutralization [19]: 0.118 µg/mL
IC50, pseudovirus neutralization [20]: > 50 µg/mL
IC80, pseudovirus neutralization [21]: > 50 µg/mL
IC50, pseudovirus neutralization [22]: 0.00933 µg/mL
IC80 [23]: > 50 µg/mL
IC50, pseudovirus neutralization [24]: 0.0223 µg/mL
IC50, pseudovirus neutralization [25]: 0.128 µg/mL
IC50, pseudovirus neutralization [26]: 0.00933 µg/mL
IC80 [27]: > 50 µg/mL
IC80 [28]: > 50 µg/mL
IC50, pseudovirus neutralization [29]: 0.114 µg/mL
IC50, pseudovirus neutralization [30]: 0.0123 µg/mL
IC50, pseudovirus neutralization [31]: 0.0203 µg/mL
IC80 [32]: 0.093 µg/mL
IC80 [33]: 2.02 µg/mL
IC50, pseudovirus neutralization [34]: 0.0307 µg/mL
IC50, pseudovirus neutralization [35]: 0.0357 µg/mL
IC50, pseudovirus neutralization [36]: 0.00633 µg/mL
IC50, pseudovirus neutralization [37]: > 50 µg/mL
IC50, pseudovirus neutralization [38]: 0.0587 µg/mL
IC80 [39]: 0.0353 µg/mL
IC80 [40]: 0.103 µg/mL
IC50, pseudovirus neutralization [41]: 0.972 µg/mL
